These results are taken from the DeepSol protein solubility set.

This data set is described as follows: soluble on expression in E. coli; label from the status in PepcDB or PDB records.
As for “MSLYQSIVFIARNVVNSITRILHDHPTNSSLITQTYFITPNHSGKNISFHLFHDFKYCSADTRHYSQLIIFPVKENSRPTQVSRPLGGRPHESVFLPKFTRTQNSYCLTRLDRMGFPPPRKASTIMHFFQDDRTVMCSPKDGIPVSSFHIMICFLERRKGN”, the “soluble on expression in E. coli” value is “soluble”. In the case of “MGSDKIHHHHHHMRVIKVKTISETLDYISKHTASVARFGDGEIDIIAGNSIPYQVYASALAARLERLLNRQSNEKLVICVSDVFDNLGRYNDFSQQFWRDHLYQYNDLYQKNCQAEWYGSTFISRPYMDLLDKSLSVTYFEQLKALWKNKDILIVEGETSRSGVGNDLFNDANTISRIICPSKDAFSSFYEIKETILEHSRGKLILLMLGPTAKLLAEDLSQLGHQAIDLGHIDSEYEWFKMGAVSKVKLSHKHTAEHNFDEDITLIEDNSYENQIVSKIGTSDRQYALTVTLTDDIWELEHLLQRCPNTDFHIAAPVYCSDRLKQLVGYPNYYLHEAITEEQFEVLLLNSDIYLDINHGEEVWNVVDRCITEGKTIYGIRRARKDNQYISFERTMDDFEYLCDTIKQNR”, the “soluble on expression in E. coli” value is recorded as “not soluble”. Consider “MINHECINQPYGRILKFSRVQAKEMLTADELKENFAKNGQTLAQWARENGFKPRDVYLVIGGQRKGNYGKGHEIAKKLGLK”, for which the “soluble on expression in E. coli” value is “not soluble”. As to “MLDEKASEEEIKAMFLMLSGGLKSQPGEDEKATAVAYLFSLDGLSRWAIKTATRDVMKGKAEGLSTTFMPASADLLLYCEKLEDDIRTTVKGIFTSLDRPEIKPKGEPISAEKWDKLMQMLEKPKIGLNPFQ”, the “soluble on expression in E. coli” value is listed as “not soluble”. As for “MIHTLAKCEWIKKSLPLCLIGDSGTGKSHLLIALGTEAAMAGYRVKYVLATKLVNELVEAADEKQLTKTIARYGRVDLLCIDELGYMELDRRGAELLFQVLTEREEKNSVAIASNESFSGWTKTFTDPRLCAAIVDRLTFGGNIIETGTDSYRLATTRARAEQQAVVLEHHHHHH”, the “soluble on expression in E. coli” value was “not soluble”. In the case of “MQGQGDLFESTDWQEVRQGKLFYQPNFLSQQEADTYFSTLMSTLPWQQERITIFGKSVLQPRLQTWHGDAPYTYSGLTMAPHPWTSELSSLKARCESLANTPFNSVLANLYRDGQDSMGWHQDNEPELGRNPVIASLNLGDTRRFVLRNLHCKTQIEYELGHGALLIMAGELQHHWRHCVPKTAKPKGERINLTFRHILNYLEHHHHHH”, the “soluble on expression in E. coli” value is reported as “soluble”. Next, “MGSDKIHHHHHHMNLRGKMIVIKFGGSSLRSEFKSAVSLIKALSEEKDVVVVVSALKGITDLLEKYTDTFDSRYAVEVSKTYLEFGKRMGIDTSSLSPYLKQLFNPPDLPPQALRDYILSIGELLSAAMIAEKANGAVIFPWDLFVAHGSFGNGFIDIKKSKRNVKLVKEALESGKIPIIPGFIANLNGYRVTLGRGGSDYSAVALGVLLNSELVAIMSDVEGIFTADPKMIPYSLLIPYMSYDEILIASKYGMEAIQWKAAKLAKEYEALILFGRASDWRMGTVVSNSSSHMPLLSYDQGKLLVMNMDSEIPYEVVEEGEFWRVYRVPKRDSIKIIKELHRKIIYQENAQLLGRVKA”: “not soluble”; “MAHHHHHHMRGTTKPMLFLCSTAVRLNFFPLGLSAGPLNSHILLPRNNFDGRTTHGMKKIQGQSKDPQMVMSRDELKLRCEYCRFEWIHDTLCVRCPAQPSHDQREMWLHSTWMWGKQQPYKYYKYMPAVRNPRTGMPMAREDARGMNNERRGQGLTTRTLNLEKERRGISRDVSRIGQYNTRWKTRFPFPT”: “not soluble”; “LDDEDVDTVVDHCGDILEHFERLEEVPEVDAEPELVNVMRADEIADSLDQDDALANAPETEDGRF”: “soluble”.

On to “MSTLKVVSSKLAAEIDKELMGPQIGFTLQQLMELAGFSVAQAVCRQFPLRGKTETEKGKHVFVIAGPGNNGGDGLVCARHLKLFGYNPVVFYPKRSERTEFYKQLVHQLNFFKVPVLSQDEGNWLEYLKPEKTLCIVDAIFGFSFKPPMREPFKGIVEELCKVQNIIPIVSVDVPTGWDVDKGPISQPSINPAVLVSLTVPKPCSSHIRENQTTHYVGGRFIPRDFANKFGFEPFGYESTDQILKL”, for which the “soluble on expression in E. coli” value was “soluble”. On to “IGVFLKDKQKVLVVEESEPFIEEQIRIEGNVYGKKTGHLPYGQVTSKDIDFALEHIEEEKVSRPADPGLIESRKKSRASICEDCPYLPLYNFLRISGVRVAGDMGCSVRSAPEPLSAVDVSFALGSAISVACGFERKGIAVIGDFALAHSGILGLLNAVSEGHEVLVLVLQNEVAAMTGGQKVPDLRKVIEAIVPDVSVFDMDGRKEKEQASGSELSDLITEKLALPGISVIFI”, for which the “soluble on expression in E. coli” value is “not soluble”.
